Source: paper PMC7465668

Biological target: S-enantioselective imine reductase from Mycobacterium smegmatis (S-IRED-Ms) (Mycobacterium smegmatis)
Experiment: crystal structure; holo-S-IRED-Ms co-crystallised with 5 mM NADPH; 10 mg/mL protein, 20% (w/v) PEG 3350, 0.2 M sodium formate, sitting drop, 4 °C; 1.55 Å, five monomers in the asymmetric unit

stoichiometry N: 2
Substance: S-enantioselective imine reductase from Mycobacterium smegmatis (S-IRED-Ms) (enzyme)
